Test results as given in publication PMC3471760.

What was measured:
[1] = target: YFP-TRPV6 (human ('hTRPV6' in p-0012; the printed GenBank AF160798 is rat, from memory)); experiment: FRET or BRET
[2] = target: CFP-N198-TRPV6 (human ('hTRPV6' in p-0012; the printed GenBank AF160798 is rat, from memory)); experiment: FRET or BRET
Chain of CFP-N198-TRPV6 (human ('hTRPV6' in p-0012; the printed GenBank AF160798 is rat, from memory)) (Q9R186 whole entry): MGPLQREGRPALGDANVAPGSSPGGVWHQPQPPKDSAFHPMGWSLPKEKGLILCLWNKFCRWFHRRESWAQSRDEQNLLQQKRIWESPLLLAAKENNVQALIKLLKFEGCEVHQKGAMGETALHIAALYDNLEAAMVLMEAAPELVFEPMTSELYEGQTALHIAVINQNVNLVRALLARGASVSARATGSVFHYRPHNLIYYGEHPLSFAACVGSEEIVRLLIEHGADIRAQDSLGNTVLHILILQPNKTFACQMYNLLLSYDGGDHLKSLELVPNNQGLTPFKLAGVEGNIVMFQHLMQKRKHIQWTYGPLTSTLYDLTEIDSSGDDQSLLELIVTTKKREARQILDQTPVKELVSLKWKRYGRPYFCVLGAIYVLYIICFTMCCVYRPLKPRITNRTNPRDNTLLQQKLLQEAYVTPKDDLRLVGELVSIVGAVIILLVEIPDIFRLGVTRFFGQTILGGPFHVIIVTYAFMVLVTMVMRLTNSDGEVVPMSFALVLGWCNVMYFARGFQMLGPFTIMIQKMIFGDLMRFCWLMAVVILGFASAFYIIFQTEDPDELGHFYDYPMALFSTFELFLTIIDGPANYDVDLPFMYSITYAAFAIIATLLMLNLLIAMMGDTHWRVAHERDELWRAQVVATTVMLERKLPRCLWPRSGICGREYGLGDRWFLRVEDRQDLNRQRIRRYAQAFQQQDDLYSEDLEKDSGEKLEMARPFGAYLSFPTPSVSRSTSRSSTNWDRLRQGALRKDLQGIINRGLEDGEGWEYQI

Chain of YFP-TRPV6 (human ('hTRPV6' in p-0012; the printed GenBank AF160798 is rat, from memory)) (Q9R186 whole entry): as above

| Molecule | FRET [1] | FRET [2] |
| --- | --- | --- |
| CFP-TRPC4 (from UniProt Q9QUQ5-1 1-974) (natural protein) | 0.02 | – |
| CFP-TRPC5 (from UniProt Q9QX29 1-975) (natural protein) | 0.02 | – |
| CFP-TRPC1 (from UniProt P48995-2 1-759) (natural protein) | 0.07 | – |
| YFP-N193-TRPC1 (from UniProt P48995-2 1-193) (domain or fragment) | – | 0.11 |
| CFP-TRPC3 (natural protein) MSTKVRKCKEQARVTFPAPEEEEDEGEDEGAEPQRRRRGWRGVNGGLEPRSAPSQREPHGYCPPPFSHGPDLSMEGSPSLRRMTVMREKGRRQAVRGPAFMFNDRGTSLTAEEERFLDAAEYGNIPVVRKMLEESKTLNVNCVDYMGQNALQLAVGNEHLEVTELLLKKENLARIGDALLLAISKGYVRIVEAILNHPGFAASKRLTLSPCEQELQDDDFYAYDEDGTRFSPDITPIILAAHCQKYEVVHMLLMKGARIERPHDYFCKCGDCMEKQRHDSFSHSRSRINAYKGLASPAYLSLSSEDPVLTALELSNELAKLANIEKEFKNDYRKLSMQCKDFVVGVLDLCRDSEEVEAILNGDLESAEPLEVHRHKASLSRVKLAIKYEVKKFVAHPNCQQQLLTIWYENLSGLREQTIAIKCLVVLVVALGLPFLAIGYWIAPCSRLGKILRSPFMKFVAHAASFIIFLGLLVFNASDRFEGITTLPNITVTDYPKQIFRVKTTQFTWTEMLIMVWVLGMMWSECKELWLEGPREYILQLWNVLDFGMLSIFIAAFTARFLAFLQATKAQQYVDSYVQESDLSEVTLPPEIQYFTYARDKWLPSDPQIISEGLYAIAVVLSFSRIAYILPANESFGPLQISLGRTVKDIFKFMVLFIMVFFAFMIGMFILYSYYLGAKVNAAFTTVEESFKTLFWSIFGLSEVTSVVLKYDHKFIENIGYVLYGIYNVTMVVVLLNMLIAMINSSYQEIEDDSDVEWKFARSKLWLSYFDDGKTLPPPFSLVPSPKSFVYFIMRIVNFPKCRRRRLQKDIEMGMGNSKSRLNLFTQSNSRVFESHSFNSILNQPTRYQQIMKRLIKRYVLKAQVDKENDEVNEGELKEIKQDISSLRYELLEDKSQATEELAILIHKLSEKLNPSMLRCE | 0.01 | – |
